Assay results taken from PMC6556434.

Key:
Experiment in all cases: ITC
H3(1-15)K4me3 peptide = target: H3(1-15)K4me3 peptide
[1] = target: H3(1-35)K4me3K27me3 doubly methylated peptide
H3(20-35)K27me3 peptide = target: H3(20-35)K27me3 peptide

Kd (H3(1-15)K4me3 peptide) [µM]	stoichiometry N [1]	Kd (H3(20-35)K27me3 peptide) [µM]	Substance
30.7	1	–	EBS without the C-terminal autoinhibition loop (EBSΔC, 1-199) (from UniProt F4JL28 1-199) (domain or fragment)
86.8	–	49.8	EARLY BOLTING IN SHORT DAY (EBS), full length (from UniProt F4JL28 1-234) (natural protein)
